Substitutions are numbered along the chain they refer to. Where two headings read alike, the source gives them in different places.

The target of experiment [1] is soluble human C3b (human) (UniProt P01024).
For experiment [2] the target is unchanged. This is another data set of the same source.
Experiment [3] has as its target T1, human C4b (human) (UniProt P0C0L5).
T1 sequence: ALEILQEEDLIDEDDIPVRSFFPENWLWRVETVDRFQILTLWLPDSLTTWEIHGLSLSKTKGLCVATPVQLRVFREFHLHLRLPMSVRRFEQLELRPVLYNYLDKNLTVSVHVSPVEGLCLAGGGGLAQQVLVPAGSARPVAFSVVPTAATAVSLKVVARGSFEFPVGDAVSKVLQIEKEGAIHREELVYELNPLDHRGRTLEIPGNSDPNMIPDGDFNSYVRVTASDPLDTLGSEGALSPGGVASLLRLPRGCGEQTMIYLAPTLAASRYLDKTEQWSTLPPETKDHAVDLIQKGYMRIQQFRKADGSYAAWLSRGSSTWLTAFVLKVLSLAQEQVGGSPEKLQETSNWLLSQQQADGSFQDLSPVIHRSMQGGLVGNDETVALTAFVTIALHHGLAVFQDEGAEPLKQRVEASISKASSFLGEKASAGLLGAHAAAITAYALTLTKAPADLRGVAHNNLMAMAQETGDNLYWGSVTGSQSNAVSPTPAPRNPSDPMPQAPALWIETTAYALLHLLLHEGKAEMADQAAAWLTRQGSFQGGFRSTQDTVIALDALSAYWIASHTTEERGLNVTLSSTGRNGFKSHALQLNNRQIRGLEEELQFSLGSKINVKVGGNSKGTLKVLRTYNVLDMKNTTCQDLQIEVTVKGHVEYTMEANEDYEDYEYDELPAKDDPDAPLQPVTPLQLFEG

Experiment [4] has as its target soluble human C3b (human) (UniProt P01024). This is another data set of the same source.
Experiment [5] has as its target T2, C3b (human, UniProt P01024).
Experiment [6] has as its target T2, C3b. The source holds these as a separate data set.
The target of experiment [7] is T2, C3b. The source holds these as a separate data set.
Experiment [8] deals with T1, human C4b (human). This is another data set of the same source.
Experiment [9] concerns the target soluble human C3b (human) (UniProt P01024). This is another data set of the same source.
Experiment [10] has as its target T2, C3b. The source holds these as a separate data set.
Experiment [11] concerns the target T3, C4b (human, UniProt P0C0L4).
T3 sequence: T1 sequence with T151A, G317D, L364P, S365C, I368L, H369D, S420N, A451V, R454L, A530S

For experiment [12], the target named is T3, C4b. The source holds these as a separate data set.
The target in experiment [13] is T2, C3b. The source holds these as a separate data set.
In experiment [14] the target is T4, human C4b (human) (UniProt P0C0L4).
T4 sequence: T1 sequence with T151A, G317D, L364P, S365C, I368L, H369D, S420N, A451V, R454L, A530S

The target of experiment [15] is soluble human C3b (human) (UniProt P01024). The source holds these as a separate data set.
The target of experiment [16] is T2, C3b. This is another data set of the same source.
Experiment [17] concerns the target CFI-HSA (human serum albumin fused to the N-terminal end of wild type CFI) (human).
For experiment [18], the target named is T2, C3b. The experiment can be described thus: cell-based or functional assay.
Experiment [19] has as its target T3, C4b. The experiment can be described thus: cell-based or functional assay.

For the molecule “CFI-HSA (E416A; D425R; E457G; N531G variant) (enzyme)”, the Fold-decrease EC50 (iC3b) vs. CFI WT in experiment [1] came out at 8.03 fold.
The same measure, in the same setting: for CFI-HSA (E416A; N531G variant) (enzyme) the value was 3.67 fold; for CFI-HSA (E457G; N531G variant) (enzyme), 3.86 fold.
Still for that read-out and setting: then “CFI-HSA (hCR1; CCP15; CCP16; CCP17 C-terminal fusion) (enzyme)”, with 0.79 fold.
Consider “CFI-HSA (human serum albumin fused to the N-terminal end of wild type CFI)”, for which the C3b-enriched AP hemolytic assay IC50 in experiment [2] was 26.4 nM.
“CFI-HSA (human serum albumin fused to the N-terminal end of wild type CFI) (enzyme)” had a C4b cleavage EC50 with human C4b (human) [3] of 365 nM. For the same molecule, the C3b cleavage EC50 in experiment [4] was found to be 25.5 nM.
CFI-HSA variant D425A (enzyme): the C3b cleavage, % Activity in the experiment with C3b [5] was 103%. In the experiment with C3b [6], this molecule returned a C3b cleavage rate, kmut/kwt of 1. The C3dg formation in activated human serum (TRIFMA), EC50 WT/EC50Variant with C3b [7] amounted to 1.7. Moreover, in the experiment with human C4b (human) [8], the C4b Screen Ref Fold (fold vs CFI-HSA wild type) turned out to be 2.71. In [9], this molecule had an iC3b Screen Ref Fold (fold vs CFI-HSA wild type) of 1.07.
In the experiment with C3b [5], CFI-HSA variant D425R (enzyme) showed a C3b cleavage, % Activity of 104%. Besides, the C3b cleavage rate, kmut/kwt with C3b [6] was found to be 2. In the experiment with C3b [7], this molecule came in with a C3dg formation in activated human serum (TRIFMA), EC50 WT/EC50Variant of 4.2. Moreover, the C4b Screen Ref Fold (fold vs CFI-HSA wild type) with human C4b (human) [8] was 0.69. In experiment [9], this molecule registered an iC3b Screen Ref Fold (fold vs CFI-HSA wild type) of 1.46.
In turn, “CFI-HSA variant E457G + CR1(CCP1-3) (from UniProt P17927) (enzyme)” yielded an AP IC50, alternative pathway hemolysis with C3b [10] of 86 nM. Also, in the experiment with C4b [11], the CP IC50, classical pathway hemolysis of sensitised sheep red cells stood at 122 nM.
Turning to “CFI-HSA variant E457G; E461Q; N531G with hCR1; CCP15; CCP16; CCP17 C-terminal fusion (enzyme)”, the C4c No Cofactor EC50 (C4b cleavage, C4c ELISA) with C4b [12] was 77.6 nM.
On the same count and under the same terms, for “CFI-HSA variant E457G; N531G; P535G with hCR1; CCP15; CCP16; CCP17 C-terminal fusion (enzyme)” the value was 44.8 nM.
The same measure, in the same setting: then “CFI-HSA variant E457G; P535G with hCR1; CCP15; CCP16; CCP17 C-terminal fusion (enzyme)”, with 35.9 nM.
With CFI-HSA variant N531G + P535A (enzyme), in the experiment with C3b [5], the C3b cleavage, % Activity is 120%. In the experiment with C3b [6], this molecule yielded a C3b cleavage rate, kmut/kwt of 3. In the experiment with C3b [7], the C3dg formation in activated human serum (TRIFMA), EC50 WT/EC50Variant was found to be 26.2. Further, the C3dg formation (TRIFMA), EC50 against wild type (FIG. 10) with C3b [13] came out at 18 fold.
In the experiment with C4b [12], “CFI-HSA variant N531G with hCR1; CCP15; CCP16; CCP17 C-terminal fusion (enzyme)” gave a C4c No Cofactor EC50 (C4b cleavage, C4c ELISA) of 76.2 nM.
“CFI-HSA variant N531G; P535A with hCR1; CCP15; CCP16; CCP17 C-terminal fusion (enzyme)” registered a C4c No Cofactor EC50 (C4b cleavage, C4c ELISA) with C4b [12] of 50.3 nM.
On the same count and under the same terms, then “CFI-HSA variant P535G with hCR1; CCP15; CCP16; CCP17 C-terminal fusion (enzyme)”, with 160 nM.
Molecule CFI-HSA variant Y408L (enzyme) registered a C3b cleavage, % Activity with C3b [5] of 104%. In the experiment with C3b [6], this molecule showed a C3b cleavage rate, kmut/kwt of 1. Besides, in the experiment with human C4b (human) [8], the C4b Screen Ref Fold (fold vs CFI-HSA wild type) worked out at 1.46. In experiment [9], this molecule returned an iC3b Screen Ref Fold (fold vs CFI-HSA wild type) of 1.4. In addition, the C4c EC50 (nM) with human C4b (human) [14] was over 1000 nM. Moreover, in experiment [15], the iC3b EC50 was 21.3 nM.
For CFI-HSA variant Y408L + N531G (enzyme), in the experiment with C3b [5], the C3b cleavage, % Activity is 123%. Besides, in the experiment with C3b [6], the C3b cleavage rate, kmut/kwt was 3. In the experiment with C3b [7], this molecule had a C3dg formation in activated human serum (TRIFMA), EC50 WT/EC50Variant of 0.6.
“CFI-HSA variant Y408L; E457G; E461Q; R462K; N531G with hCR1; CCP15; CCP16; CCP17 C-terminal fusion (enzyme)” had a C4c No Cofactor EC50 (C4b cleavage, C4c ELISA) in the experiment with C4b [12] of 106 nM.
The same measure, in the same setting: for “CFI-HSA variant Y408L; E457G; N531G with hCR1; CCP15; CCP16; CCP17 C-terminal fusion (enzyme)” the value was 156 nM.
The same measure, in the same setting: for “CFI-HSA variant Y408L; E457G; N531G; P535G with hCR1; CCP15; CCP16; CCP17 C-terminal fusion (enzyme)” the value was 97.7 nM; for “CFI-HSA variant Y408L; E457G; R462K; F464Y; N531G with hCR1; CCP15; CCP16; CCP17 C-terminal fusion (enzyme)”, 104 nM.
On the same count and under the same terms, for “CFI-HSA variant Y408L; N531G with hCR1; CCP15; CCP16; CCP17 C-terminal fusion (enzyme)” the value was 57.1 nM; for “CFI-HSA variant Y408L; N531G; P535G with hCR1; CCP15; CCP16; CCP17 C-terminal fusion (enzyme)”, 50.1 nM.
“HSA + CfI + GGSSGG (SEQ ID NO: 6) + CR1(ccp15-17) (enzyme)”: the C4c No Cofactor EC50 (C4b cleavage, C4c ELISA) with C4b [12] is 63.5 nM. The same molecule yielded a C3c No Cofactor EC50 (C3b cleavage, iC3b ELISA) in the experiment with C3b [16] of 33.7 nM.
Molecule “recombinant human furin (from UniProt P09958) (enzyme)” gave an activation (cleavage) of CFI-HSA by furin in experiment [17] of over 90%.

B1: Plasma derived, wild type human CFI (enzyme)
chain: KVTYTSQEDLVEKKCLAKKYTHLSCDKVFCQPWQRCIEGTCVCKLPYQCPKNGTAVCATNRRSFPTYCQQKSLECLHPGTKFLNNGTCTAEGKFSVSLKHGNTDSEGIVEVKLVDQDKTMFICKSSWSMREANVACLDLGFQQGADTQRRFKLSDLSINSTECLHVHCRGLETSLAECTFTKRRTMGYQDFADVVCYTQKADSPMDDFFQCVNGKYISQMKACDGINDCGDQSDELCCKACQGKGFHCKSGVCIPSQYQCNGEVDCITGEDEVGCAGFASVTQEETEILTADMDAERRRIKSLLPKLSCGVKNRMHIRRKRIVGGKRAQLGDLPWQVAIKDASGITCGGIYIGGCWILTAAHCLRASKTHRYQIWTTVVDWIHPDLKRIVIEYVDRIIFHENYNAGTYQNDIALIEMKKDGNKKDCELPRSIPACVPWSPYLFQPNDTCIVSGWGREKDNERVFSLQWGEVKLISNCSKFYGNRFYEKEMECAGTYDGSIDACKGDSGGPLVCMDANNVTYVWGVVSWGENCGKPEFPGVYTKVANYFDWISYHVGRPFISQYNV
On to B1, for which the C4b cleavage EC50 with human C4b (human) [3] amounted to 385 nM. This molecule came in with a C3b cleavage EC50 in [4] of 25.3 nM. For the same molecule, the C3b-enriched AP hemolytic assay IC50 in experiment [2] turned out to be 12.9 nM. The “AP IC50, alternative pathway hemolysis” value in the experiment with C3b [18] stood at 6.05 nM. Further, the “CP IC50, classical pathway hemolysis of sensitised sheep red cells” value with C4b [19] was 135 nM.

The record behind these values is US20230038638A1, “COMPLEMENT FACTOR I-RELATED COMPOSITIONS AND METHODS” (published 2023).
